Measurements taken from patent US11441131B2, “Heparosan synthases and use thereof for saccharide synthesis” (The Regents of the University of California, priority 2019, dated 2022).
Where a chain is given by its changes, count along the chain named. Names may count otherwise.

Columns and labels:
[1] = Isoelectric point (pI); assay type: physicochemical
[2] = Behaviour during dialysis; assay type: physicochemical
[3] = Relative activity comparison with acceptor GlcNAcαProNHFmoc and UDP-GlcA; assay type: biochemical; conditions: enzyme 1.5 mg/mL; percentage conversion, 30 min, HPLC
Description: (§1) Reactions were stopped by heating reaction mixtures at 70° C. for 10 min, followed by incubation on ice for 30 min and centrifugation at 11,337 g for 15 min.

[4] = Protein expression and purification; parameters: species or system E. coli BL21 (DE3); conditions: per L culture
Description: Protein expression and purification. The plasmid-bearing E. coli BL21(DE3) cells were cultured in 1 L of LB-rich media (10 g/L tryptone, 5 g/L yeast extract and 10 g/L NaCl) supplemented with ampicillin (100 μg/mL). Expression of the target protein was achieved by inducing the E. coli culture with 0.1 mM of isopropyl-1-thio-β-D-galactopyranoside (IPTG) when OD600 nm reached 0.8-1.0, followed by incubating at 20° C. for 20 h with shaking at 250 rpm in a C25KC incubator shaker (New Brunswick Scientific, Edison, N.J.). Histidine-tagged target proteins were purified from cell lysate. To obtain the cell lysate, cell pellet harvested by centrifugation at 2,795 g for 50 min was resuspended (25 mL/L cell culture) in lysis buffer (Tris-HCl, 100 mM, pH 8.0 with 0.1% Triton X-100). Sonication protocol was 2 s (sonication)/3 s (rest) for a total of 6 min on ice. Lysed cells were centrifuged at 5,000 g for 50 min and the supernatant (lysate) was collected. Purification of histidine-tagged proteins from the lysate was achieved using a Ni′-resin column. The column was pre-equilibrated with 10 column volumes of binding buffer (5 mM imidazole, 0.5 M NaCl, 50 mM Tris-HCl, pH 7.5). The lysate was then loaded, and the column was washed with 10 column volumes of binding buffer and 10 column volumes of washing buffer (16 mM imidazole, 0.5 M NaCl, 50 mM Tris-HCl, pH 7.5). The target protein was eluted with Tris-HCl buffer (50 mM, pH 7.5) containing imidazole (200 mM) and NaCl (0.5 M). The fractions containing the purified enzymes were collected, and stored at 4° C.

[5] = Effect of UDP concentration on reverse glycosylation activity; assay type: biochemical; conditions: O6 1 mM, enzyme 15 μM
Description: Reactions were stopped by heating reaction mixtures at 70° C. for 10 min followed by incubation on ice for 30 min, and centrifugation at 11,337 g for 15 min. Supernatants were analyzed using an Infinity 1290 II HPLC equipped with 1260 Infinity II Diode Array Detector WR (monitored at 254 nm, Agilent Technologies, CA). An AdvanceBio Glycan Mapping column (1.8 μm particle, 2.1×150 mm, Agilent Technologies, CA) was used with a gradient (13 min) of 0.5 mL/min for 90% to 70% acetonitrile and a solution of water with 0.1% TFA for analysis.

[6] = Relative activity comparison with acceptor GlcAβProNHFmoc (O1) and UDP-GlcNAc; assay type: biochemical; conditions: for GlcNAcα1-4GlcAβProNHFmoc (%): percentage conversion, 30 min, HPLC
Description: as §1

[7] = Reverse glycosylation assay mimicking synthetic conditions; assay type: biochemical; conditions: 30 mM UDP, conditions mimicking synthetic reactions
Description: Reactions were stopped by heating reaction mixtures at 70° C. for 10 min, followed by incubation on ice for 30 min and centrifugation at 11,337 g for 15 min. Supernatants were analyzed similarly to that described above for time-course reverse glycosylation assays.

[8] = β1-4-GlcAT activity comparison of His6-Δ80PmHS2 and its D222N and D500N mutants; assay type: biochemical
Description: Reactions were stopped by heating reaction mixtures at 70° C. for 10 min, followed by incubation on ice for 30 min and centrifugation at 11,337 g for 15 min. Supernatants were analyzed similarly to that described above for the coupled-enzyme reverse glycosylation assay.

[9] = α1-4-GlcNAcT activity comparison of His6-Δ80PmHS2 and its D222N and D500N mutants; assay type: biochemical
Description: Reactions were stopped by heating reaction mixture at 70° C. for 10 min, followed by incubation on ice for 30 min and centrifugation at 11,337 g for 15 min. Supernatants were analyzed similarly to that described above for […].

[10] = α1-4GlcNAc-transferase activity of designed mutants; assay type: biochemical

B1: His6-PmHS2: N-terminal His6-tagged wild-type Pasteurella multocida heparosan synthase 2 (SEQ ID NO:6) (protein)
chain: MGSSHHHHHHSSGLVPRGSHMKGKKEMTQKQMTKNPPQHEKENELNTFQNKIDSLKTTLNKDIISQQTLLAKQDSKHPLSESLENENKLLLKQLQLVLQEFEKIYTYNQALEAKLEKDKQTTSITDLYNEVAKSDLGLVKETNSANPLVSIIMTSHNTAQFIEASINSLLLQTYKNIEIIIVDDDSSDNTFEIASRIANTTSKVRVFRLNSNLGTYFAKNTGILKSKGDIIFFQDSDDVCHHERIERCVNILLANKETIAVRCAYSRLAPETQHIIKVNNMDYRLGFITLGMHRKVFQEIGFFNCTTKGSDDEFFHRIAKYYGKEKIKNLLLPLYYNTMRENSLFTDMVEWIDNHNIIQKMSDTRQHYATLFQAMHNETASHDFKNLFQFPRIYDALPVPQEMSKLSNPKIPVYINICSIPSRIAQLQRIIGILKNQCDHFHIYLDGYVEIPDFIKNLGNKATVVHCKDKDNSIRDNGKFILLEELIEKNQDGYYITCDDDIIYPSDYINTMIKKLNEYDDKAVIGLHGILFPSRMTKYFSADRLVYSFYKPLEKDKAVNVLGTGTVSFRVSLFNQFSLSDFTHSGMADIYFSLLCKKNNILQICISRPANWLTEDNRDSETLYHQYRDNDEQQTQLIMENGPWGYSSIYPLVKNHPKFTDLIPCLPFYFL
modifications: N-terminal His6 tag
Question: Which pI [1] does the source give for B1 here?
Answer: 6.83

Question: And the behaviour during dialysis [2]?
Answer: precipitated easily during dialysis

Question: What about the “GlcAβ1-4GlcNAcαProNHFmoc (%)” value [3] of the same molecule?
Answer: 10.3 ± 0.3%

Question: And the expression level [4]?
Answer: 17 to 20 mg/L

Question: And the “O6 (%)” value ([5]; UDP 0 (nM))?
Answer: 100%

Question: And the “O1 (%)” value ([5]; UDP 1 (nM))?
Answer: 3.3%

Question: What about the “O2 (%)” value ([5]; UDP 1 (nM)) of the same molecule?
Answer: 2.7%

Question: And the “O3 (%)” value ([5]; UDP 1 (nM))?
Answer: 1.4%

Question: And the “O4 (%)” value ([5]; UDP 1 (nM))?
Answer: 9.6%

Question: And the “O5 (%)” value ([5]; UDP 1 (nM))?
Answer: 3.0%

Question: What about the “O6 (%)” value ([5]; UDP 1 (nM)) of the same molecule?
Answer: 64.2%

Question: What about the “O8 (%)” value ([5]; UDP 1 (nM)) of the same molecule?
Answer: 13.5%

Question: What about the “O10 (%)” value ([5]; UDP 1 (nM)) of the same molecule?
Answer: 1.9%

Question: What about the “O1 (%)” value ([5]; UDP 5 (nM)) of the same molecule?
Answer: 3.9%

Question: And the “O2 (%)” value ([5]; UDP 5 (nM))?
Answer: 5.5%

Question: And the “O3 (%)” value ([5]; UDP 5 (nM))?
Answer: 1.1%

Question: And the “O4 (%)” value ([5]; UDP 5 (nM))?
Answer: 8.8%

Question: What about the “O5 (%)” value ([5]; UDP 5 (nM)) of the same molecule?
Answer: 4.8%

Question: And the “O6 (%)” value ([5]; UDP 5 (nM))?
Answer: 52.3%

Question: What about the “O7 (%)” value ([5]; UDP 5 (nM)) of the same molecule?
Answer: 0.4%

Question: What about the “O8 (%)” value ([5]; UDP 5 (nM)) of the same molecule?
Answer: 16.0%

Question: And the “O10 (%)” value ([5]; UDP 5 (nM))?
Answer: 5.7%

Question: And the “O12 (%)” value ([5]; UDP 5 (nM))?
Answer: 0.7%

Question: What about the “O1 (%)” value ([5]; UDP 10 (nM)) of the same molecule?
Answer: 3.1%

Question: And the “O2 (%)” value ([5]; UDP 10 (nM))?
Answer: 9.0%

Question: And the “O3 (%)” value ([5]; UDP 10 (nM))?
Answer: 0.6%

Question: What about the “O4 (%)” value ([5]; UDP 10 (nM)) of the same molecule?
Answer: 17.7%

Question: And the “O5 (%)” value ([5]; UDP 10 (nM))?
Answer: 9.1%

Question: What about the “O6 (%)” value ([5]; UDP 10 (nM)) of the same molecule?
Answer: 36.2%

Question: And the “O7 (%)” value ([5]; UDP 10 (nM))?
Answer: 1.1%

Question: And the “O8 (%)” value ([5]; UDP 10 (nM))?
Answer: 16.3%

Question: And the “O9 (%)” value ([5]; UDP 10 (nM))?
Answer: 0.4%

Question: What about the “O10 (%)” value ([5]; UDP 10 (nM)) of the same molecule?
Answer: 4.6%

Question: What about the “O12 (%)” value ([5]; UDP 10 (nM)) of the same molecule?
Answer: 1.3%

Question: What about the “efficiency of GlcAβProNHFmoc (O1) over GlcNAcαProNHFmoc as substrate in disaccharide production” value [6] of the same molecule?
Answer: 157 fold

Question: And the “GlcNAcα1-4GlcAβProNHFmoc (%)” value ([6]; enzyme 0.06 mg/mL)?
Answer: 64.5 ± 1.0%

Question: And the “GlcNAcα1-4GlcAβProNHFmoc (%)” value ([6]; enzyme 1.5 mg/mL)?
Answer: 100%

B2: D500N (protein)
chain: MGSSHHHHHHSFEKIYTYNQALEAKLEKDKQTTSITDLYNEVAKSDLGLVKETNSANPLVSIIMTSHNTAQFIEASINSLLLQTYKNIEIIIVDDDSSDNTFEIASRIANTTSKVRVFRLNSNLGTYFAKNTGILKSKGDIIFFQDSDDVCHHERIERCVNILLANKETIAVRCAYSRLAPETQHIIKVNNMDYRLGFITLGMHRKVFQEIGFFNCTTKGSDDEFFHRIAKYYGKEKIKNLLLPLYYNTMRENSLFTDMVEWIDNHNIIQKMSDTRQHYATLFQAMHNETASHDFKNLFQFPRIYDALPVPQEMSKLSNPKIPVYINICSIPSRIAQLQRIIGILKNQCDHFHIYLDGYVEIPDFIKNLGNKATVVHCKDKDNSIRDNGKFILLEELIEKNQDGYYITCDDDIIYPSDYINTMIKKLNEYDDKAVIGLHGILFPSRMTKYFSADRLVYSFYKPLEKDKAVNVLGTGTVSFRVSLFNQFSLSDFTHSGMANIYFSLLCKKNNILQICISRPANWLTEDNRDSETLYHQYRDNDEQQTQLIMENGPWGYSSIYPLVKNHPKFTDLIPCLPFYFL
Question: Which “reverse glycosylation oligosaccharide products” value [7] does the source give for B2 here?
Answer: no reverse glycosylation oligosaccharide products were observed

Question: What about the “β1-4-GlcAT activity relative to His6-Δ80PmHS2” value [8] of the same molecule?
Answer: retained

Question: And the expression level [4]?
Answer: 60 to 70 mg/L

Question: What about the “decrease of α1-4-GlcNAcT activity relative to His6-Δ80PmHS2” value [9] of the same molecule?
Answer: 548 fold

B3: T475A (protein)
chain: B2 chain with T475A, N500D
Question: For B3, which α1-4GlcNAc-transferase activity [10] is on record?
Answer: retained

B4: T477A (protein)
chain: B2 chain with T477A, N500D
Question: Which α1-4GlcNAc-transferase activity [10] does the source give for B4 here?
Answer: retained
